Target: the molecule itself
Test: cryo-EM structure; dual motor condition: GFP-tagged myosin V and myosin VI anchored to a holey carbon grid by an anti-GFP antibody, F-actin applied, then MB-ATP (20 mM MOPS pH 7.4, 5 mM MgCl2, 0.1 mM EGTA, 1 mM DTT, 1 mM ATP, 0.01% NP-40) with α-catenin ABD for 30 s before plunge freezing; 0.6 µM F-actin and 1 µM α-catenin ABD (sub-saturating); consensus map 10.4 Å, 3DVA-sorted map 12.3 Å

B1: C-terminal actin-binding domain (ABD) of human α-catenin (amino acids 664–906) (domain or fragment, UniProt P35221 664-906, looked up)
chain: IAGQSARAIMAQLPQEQKAKIAEQVASFQEEKSKLDAEVSKWDDSGNDIIVLAKQMCMIMMEMTDFTRGKGPLKNTSDVISAAKKIAEAGSRMDKLGRTIADHCPDSACKQDLLAYLQRIALYCHQLNICSKVKAEVQNLGGELVVSGVDSAMSLIQAAKNLMNAVVQTVKASYVASTKYQKSQGMASLNLPAVSWKMKAPEKKPLVKREKQDETQTKIKRASQKKHVNPVQALSEFKAMDSI
notes: the tags were removed with TEV protease; also called α-catenin ABD; αE-catenin ABD; source: E. coli Rosetta2(DE3), purified (Ni-NTA, TEV cleavage, anion exchange, SEC); not shown: His6, N-terminal, cleaved; strep tag, N-terminal, cleaved
- binding result: binds

From paper PMC13233326, “Myosin forces remodel F-actin for mechanosensitive protein recognition” (Nature, 2026)
